Results reported in US20250145729A1 (DENALI THERAPEUTICS, published 2025).
Substitutions are numbered along the chain they refer to.

B1: LLB2-9 (Fc fusion)
chain: APELLGGPSVFLFPPKPKDTLMISRTPEVTCVVVDVSHEDPEVKFNWYVDGVEVHNAKTKPREEQYNSTYRVVSVLTVLHQDWLNGKEYKCKVSNKALPAPIEKTISKAKGQPREPQVYTLPPSRDELTKNQVSLTCLVKGFYPSDIAVLWNSRFQLENNYKTTPPVLDSDGSFFLYSKLTVDKSRWQQGNIFACNVLHEALHNHYTFKNLSLSPGK
notes: Fc part only
B2: LLB2-10-8-d1 BV (Fc fusion)
chain: B1 chain with Q156V, N191E, L198Y
notes: Fc part only; BV = bivalent
B3: LLB2-20 (Fc fusion)
chain: B1 chain with A148V, Q156V, N159D, Y161V, N191A, Y206H, S212V
notes: Fc part only
B4: LLB2-31 (Fc fusion)
chain: B1 chain with R154Q, Q156V, L198Y, S212A
notes: Fc part only
B5: LLB2.10.8.4.12.N (Fc fusion)
chain: B1 chain with Q156V, L198Y, Y206W, S212R
notes: Fc part only; changes read against LLB2-10-8
B6: LLB2-10-6 (Fc fusion)
chain: B1 chain with Q156V, L198Y, S212A
notes: Fc part only
B7: LLB2.10.8.10.8.N (Fc fusion)
chain: B1 chain with Q156V, L198Y, S212H
notes: as for B5
B8: LLB2-10-9 (Fc fusion)
chain: B1 chain with A148V, Q156V, N191E, L198Y, S212A
notes: Fc part only
B9: LLB2-10-4 (Fc fusion)
chain: B1 chain with A148V, Q156V, S212A
notes: Fc part only
B10: LLB2-10-11 (Fc fusion)
chain: B1 chain with Q156L, N191E, L198Y, S212A
notes: Fc part only
B11: LLB2-17 (Fc fusion)
chain: B1 chain with A148S, Q156A, N159D, Y161T, N191E, S212A
notes: Fc part only
B12: LLB2-10-8-d14 BV (Fc fusion)
chain: B1 chain with R154Q, F155Y, Q156E, N191E, I192V, L198Y
notes: Fc part only; changes read against LLB2-10-8; BV = bivalent
B13: LLB2-23 (Fc fusion)
chain: B1 chain with A148V, Q156V, N159Q, Y161V, N191E, S212V
notes: Fc part only
B14: LLB2-10-10 (Fc fusion)
chain: B1 chain with R154Q, Q156V, N191E, L198Y, S212A
notes: Fc part only
B15: LLB2-10 (Fc fusion)
chain: B1 chain with Q156V
notes: Fc part only
B16: LLB2-10-5 (Fc fusion)
chain: B1 chain with Q156V, N191E, S212A
notes: Fc part only
B17: LLB2-21 (Fc fusion)
chain: B1 chain with A148D, Q156L, N159T, Y161T, N191E, S212K
notes: Fc part only
B18: LLB2-13 (Fc fusion)
chain: B1 chain with R154Q, Q156L
notes: Fc part only
B19: LLB2-10-8-d3 BV (Fc fusion)
chain: B1 chain with Q156V, N191E, I192V, L198Y, S212A
notes: Fc part only; BV = bivalent
B20: LLB2-12 (Fc fusion)
chain: B1 chain with Q156S, N204S
notes: Fc part only
B21: LLB2-24 (Fc fusion)
chain: B1 chain with A148E, S153T, Q156V, N159T, Y161A, N191E, Y206F, S212A
notes: Fc part only
B22: LLB2-10-8-d17 BV (Fc fusion)
chain: B1 chain with R154Q, F155Y, Q156E, I192V, L198Y
notes: as for B12
B23: LLB2-10-8-d15 BV (Fc fusion)
chain: B1 chain with R154Q, F155Y, Q156E, N191E, I192V, L198Y, S212A
notes: as for B12
B24: LLB2-10-13 (Fc fusion)
chain: B1 chain with R154Q, Q156L, N191E, L198Y, S212Q
notes: Fc part only
B25: LLB2-10-8-d8 BV (Fc fusion)
chain: B1 chain with R154H, F155Y, Q156E, N191E, I192V, L198Y
notes: as for B12
B26: LLB2-30 (Fc fusion)
chain: B1 chain with R154Q, Q156L, L198Y, S212Q
notes: Fc part only
B27: LLB2-10-8-d11 BV (Fc fusion)
chain: B1 chain with R154H, F155Y, Q156E, I192V, L198Y
notes: as for B12
B28: LLB2-10-8-d7 BV (Fc fusion)
chain: B1 chain with R154H, F155Y, Q156E, N191E, L198Y
notes: as for B12
B29: LLB2-18 (Fc fusion)
chain: B1 chain with A148V, Q156A, N159Q, Y161V, N191Q, Y206L, S212V
notes: Fc part only
B30: LLB2-10-8 (Fc fusion)
chain: B1 chain with Q156V, N191E, L198Y, S212A
notes: Fc part only
B31: LLB2-11 (Fc fusion)
chain: B1 chain with Q156S, L198M
notes: Fc part only
B32: LLB2-10-8-d18 BV (Fc fusion)
chain: B1 chain with R154Q, F155Y, Q156E, I192V, L198Y, S212A
notes: Fc part only; BV = bivalent
B33: LLB2-10-8-d5 BV (Fc fusion)
chain: B1 chain with Q156V, I192V, L198Y
notes: as for B12
B34: LLB2-10-1 (Fc fusion)
chain: B1 chain with Q156V, S212A
notes: Fc part only
B35: LLB2-10-7 (Fc fusion)
chain: B1 chain with Q156V, N204S, S212A
notes: Fc part only
B36: LLB2.10.8.12.5.N (Fc fusion)
chain: B1 chain with R154H, F155Y, Q156E, L198Y, S212A
notes: as for B5
B37: LLB2.10.8.9.11.N (Fc fusion)
chain: B1 chain with Q156V, I192T, L198Y, S212A
notes: Fc part only
B38: LLB2-10-8-d12 BV (Fc fusion)
chain: B1 chain with R154H, F155Y, Q156E, I192V, L198Y, S212A
notes: Fc part only; BV = bivalent
B39: LLB2.10.8.10.1.N (Fc fusion)
chain: B1 chain with Q156V, L198Y, S212K
notes: as for B5
B40: LLB2-10-8-d16 BV (Fc fusion)
chain: B1 chain with R154Q, F155Y, Q156E, L198Y
notes: as for B12
B41: LLB2-10-12 (Fc fusion)
chain: B1 chain with Q156V, N191E, L198Y, S212Q
notes: Fc part only
B42: LLB2-10-8-d2 BV (Fc fusion)
chain: B1 chain with Q156V, N191E, I192V, L198Y
notes: as for B12
B43: LLB2-10-8-d6 BV (Fc fusion)
chain: B1 chain with Q156V, I192V, L198Y, S212A
notes: Fc part only; BV = bivalent
B44: LLB2-10-8-d10 BV (Fc fusion)
chain: B1 chain with R154H, F155Y, Q156E, L198Y
notes: as for B12
B45: LLB2.10.8.10.3.N (Fc fusion)
chain: B1 chain with Q156V, L198Y, S212R
notes: as for B5
B46: LLB2-10-8-d9 BV (Fc fusion)
chain: B1 chain with R154H, F155Y, Q156E, N191E, I192V, L198Y, S212A
notes: as for B12
B47: LLB2-37 (Fc fusion)
chain: B1 chain with R154Q, Q156H, L198Y, S212L
notes: Fc part only
B48: LLB2-10-8-d4 BV (Fc fusion)
chain: B1 chain with Q156V, L198Y
notes: as for B12
B49: LLB2-10-8-d13 BV (Fc fusion)
chain: B1 chain with R154Q, F155Y, Q156E, N191E, L198Y
notes: as for B12

Key:
human CD98hc = target: T1, human CD98hc (human, UniProt P08195 109-529); test: SPR (Biacore)
T1 construct: also called huCD98hc; CD98 heavy chain
T1 sequence: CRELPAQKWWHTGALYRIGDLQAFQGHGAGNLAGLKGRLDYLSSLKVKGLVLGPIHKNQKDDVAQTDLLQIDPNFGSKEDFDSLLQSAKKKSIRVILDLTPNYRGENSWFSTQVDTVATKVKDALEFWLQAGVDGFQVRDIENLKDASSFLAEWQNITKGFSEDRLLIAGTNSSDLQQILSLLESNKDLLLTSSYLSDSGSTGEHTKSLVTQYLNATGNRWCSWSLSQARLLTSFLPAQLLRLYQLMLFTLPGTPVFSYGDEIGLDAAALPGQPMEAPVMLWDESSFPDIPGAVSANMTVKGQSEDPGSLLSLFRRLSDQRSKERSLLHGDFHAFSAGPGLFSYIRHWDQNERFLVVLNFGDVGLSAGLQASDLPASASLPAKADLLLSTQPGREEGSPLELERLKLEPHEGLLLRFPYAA
Outline: (§1)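 The values are Kd for CD98hc binding by engineered Fc polypeptides, determined by surface plasmon resonance on a Biacore instrument. Clones were tested as Fc-Fab fusions carrying anti-BACE1 Fabs, in bivalent form or in a monovalent knob/hole form with the CD98hc-binding site only on the knob chain.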

cyno CD98hc = target: T2, cyno CD98hc (cynomolgus monkey); test: SPR (Biacore)
T2 construct: also called cynomolgus CD98hc; cyCD98hc
Outline: as §1

| Binder | Kd (human CD98hc) [nM] | Kd (cyno CD98hc) [nM] |
| --- | --- | --- |
| B1 | 750 | 3300 |
| B2 | 280 | 1500 |
| B3 | 1200 | 5500 |
| B4 | 640 | 2100 |
| B5 | 140 | 700 |
| B6 | 460 | 2100 |
| B7 | 650 | 2200 |
| B8 | 250 | 1300 |
| B9 | 630 | 3000 |
| B10 | 230 | 1200 |
| B11 | 2000 | 9200 |
| B12 | 960 | 4050 |
| B13 | 500 | 2600 |
| B14 | 220 | 1100 |
| B15 | 680 | 2700 |
| B16 | 390 | 2200 |
| B17 | 420 | 2300 |
| B18 | 850 | 3800 |
| B19 | 490 | 2600 |
| B20 | 990 | 5000 |
| B21 | 1100 | 6200 |
| B22 | 960 | 4100 |
| B23 | 1000 | 4600 |
| B24 | 260 | 1100 |
| B25 | 820 | 3500 |

| Binder | Kd (human CD98hc) [nM] | Kd (cyno CD98hc) [nM] |
| --- | --- | --- |
| B26 | 450 | 2000 |
| B27 | 2400 | 7200 |
| B28 | 410 | 2000 |
| B29 | 1800 | 9100 |
| B30 | 170 | 890 |
| B31 | 1300 | 8200 |
| B32 | 880 | 3010 |
| B33 | 1470 | 5500 |
| B34 | 795 | 4200 |
| B35 | 1100 | 6200 |
| B36 | 1500 | 4700 |
| B37 | 1200 | 4500 |
| B38 | 2100 | 5970 |
| B39 | 500 | 1800 |
| B40 | 650 | 2500 |
| B41 | 210 | 1200 |
| B42 | 490 | 2300 |
| B43 | 1480 | 5300 |
| B44 | 1400 | 4200 |
| B45 | 490 | 2000 |
| B46 | 840 | 4200 |
| B47 | 610 | 2800 |
| B48 | 670 | 2600 |
| B49 | 650 | 2600 |
